Assay results reported in patent publication US20160083450A1, “HUMAN PROTEIN SCAFFOLD WITH CONTROLLED SERUM PHARMACOKINETICS” (THE REGENTS OF THE UNIVERSITY OF CALIFORNIA, priority 2009, published 2016).

What was measured:
[1] = design: species or system Balb/c mice; settings: mouse, in vivo
Method: Their pharmacokinetic profile in blood was evaluated in vivo by injecting each ^131I-labeled DIII protein intravenously in Balb/c mice. Blood was drawn from the tail at eight different time points (0-72 h) and the radioactivity was counted in a gamma well counter.

[2] = format: physicochemical
Method: (§1) When dissolved in aqueous solution, the peptide precipitated. Lack of solubility in water immediately renders this peptide inappropriate for in vivo application. Prior to conjugation, the HyNic modified peptide was dissolved in dimethyl formamide (DMF) organic solvent. The purified DIM was modified to incorporate the 4FB moiety at random lysine residues following protocols provided by SoluLink. After conjugation, the peptide/DIII ratio was determined by measuring A354nm to be an average of 2 CEA specific peptides for every DIIIb molecule and the conjugate was soluble in aqueous solutions. Size exclusion chromatography using Superdex 200 column (GE Healthcare Piscataway, N.J.) was used for purification. Purified anti-CEA peptide-DIIIb conjugates were then radiolabeled with ^124I and injected intravenously in four athymic nude mice bearing LS174T (CEA positive) and C6 (CEA negative) tumors. Mice were imaged by small animal PET/CT at 4, 20 and 27 h, after which mice were euthanized, dissected and tissues/organs were counted in a gamma well counter.

[3] = system: LS174T (CEA positive) tumor; format: in vivo, athymic nude mice
Method: as §1

Question: With “DIII H464A: HSA domain III variant with H464 mutated to alanine” as the molecule, how does the “AUC (time integral of the blood uptake)” value [1] read?
Answer: 199 % ID/g × h

Question: And the “Aα (amplitude)” value [1]?
Answer: 44.95 % ID/g

Question: What about the “Aβ (amplitude)” value [1] of the same molecule?
Answer: 11.41 % ID/g

Question: And the k1 [1]?
Answer: 1.438

Question: What about the k2 [1] of the same molecule?
Answer: 0.068

Question: And the t1/2α [1]?
Answer: 0.482 h

Question: What about the t1/2β [1] of the same molecule?
Answer: 10.2 h

Question: Which “AUC (time integral of the blood uptake)” value [1] does the source give for “DIII WT: HSA domain III wild type (amino acid residues 384 to 585)” here?
Answer: 474.8 % ID/g × h

Question: What about the “Aα (amplitude)” value [1] of the same molecule?
Answer: 36.2 % ID/g

Question: And the “Aβ (amplitude)” value [1]?
Answer: 16.81 % ID/g

Question: What about the k1 [1] of the same molecule?
Answer: 0.3479

Question: What about the k2 [1] of the same molecule?
Answer: 0.04534

Question: What about the t1/2α [1] of the same molecule?
Answer: 1.99 h

Question: Which “Solubility in aqueous solution” value [2] does the source give for “SDWVCEFIKSQWFCNVLASG [CEA specific, cyclic peptide, reference compound]” here?
Answer: precipitated

B1: anti-CEA peptide-DIIIb conjugate: CEA specific cyclic peptide (HyNic) conjugated to 4FB-modified DIIIb, average of 2 peptides per DIIIb (conjugate)
chain: HADICTLSEKERQIKKQTALVELVKHKPKATKEQLKAVMDDFAAFVEKCCKADDKETCFAEEGKKLVAASQAALGL
peptide: SDWVCEFIKSQWFCNVLASG
modifications: cyclised or stapled
notes: CEA specific cyclic peptide (HyNic) conjugated to 4FB-modified DIIIb, average of 2 peptides per DIIIb
Question: With B1 as the molecule, how does the “(CEA positive) tumor/(CEA negative) tumor ratio” value ([3]; 27 h) read?
Answer: 1.2

Question: And the Tumor/muscle ratio ([3]; 27 h)?
Answer: 5.1

Question: And the tumor/blood ratio ([3]; 27 h)?
Answer: 0.51

Question: What about the “Targeting of CEA positive tumor” value ([3]; PET/CT images) of the same molecule?
Answer: target the CEA positive tumor

Question: And the Blood ([3]; mouse, in vivo)?
Answer: 3.00 % ID/g

Question: And the “C6 Tumor” value ([3]; mouse, in vivo)?
Answer: 1.26 % ID/g

Question: What about the Carcass ([3]; mouse, in vivo) of the same molecule?
Answer: 0.56 % ID/g

Question: What about the Kidneys ([3]; mouse, in vivo) of the same molecule?
Answer: 3.66 % ID/g

Question: What about the “LS174T Tumor” value ([3]; mouse, in vivo) of the same molecule?
Answer: 1.53 % ID/g

Question: And the Liver ([3]; mouse, in vivo)?
Answer: 1.42 % ID/g

Question: And the Lungs ([3]; mouse, in vivo)?
Answer: 2.36 % ID/g

Question: And the Muscle ([3]; mouse, in vivo)?
Answer: 0.30 % ID/g

Question: What about the Spleen ([3]; mouse, in vivo) of the same molecule?
Answer: 1.04 % ID/g

Question: What about the Stomach ([3]; mouse, in vivo) of the same molecule?
Answer: 1.07 % ID/g

Question: What about the “Solubility in aqueous solution” value [2] of the same molecule?
Answer: soluble
